Test results as given in article PMC9845149, “Interplay between C1-inhibitor and group IIA secreted phospholipase A2 impairs their respective function” (Immunologic Research, 2022).

Target: T1, human plasma-derived C1-esterase inhibitor (human, UniProt P05155 23-500)
T1 construct: Glycoprotein from plasma; also called pdC1-INH; C1-INH; source: bought: Cinryze, Takeda Pharmaceutical Company (human plasma-derived); also in plasma of healthy donors (functional assay)
T1 sequence (looked up): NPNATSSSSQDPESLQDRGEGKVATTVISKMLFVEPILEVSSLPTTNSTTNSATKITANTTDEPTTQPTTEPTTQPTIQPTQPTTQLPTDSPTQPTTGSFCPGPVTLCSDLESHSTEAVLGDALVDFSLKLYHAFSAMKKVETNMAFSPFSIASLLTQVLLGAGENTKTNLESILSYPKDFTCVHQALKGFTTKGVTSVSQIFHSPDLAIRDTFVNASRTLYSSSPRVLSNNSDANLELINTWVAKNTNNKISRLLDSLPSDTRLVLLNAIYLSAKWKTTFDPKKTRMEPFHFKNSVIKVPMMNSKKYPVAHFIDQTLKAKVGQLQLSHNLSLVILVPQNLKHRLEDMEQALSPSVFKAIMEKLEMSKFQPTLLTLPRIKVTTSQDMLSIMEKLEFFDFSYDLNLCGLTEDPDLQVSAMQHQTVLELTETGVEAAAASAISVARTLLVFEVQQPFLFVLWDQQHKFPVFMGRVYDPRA
Test: SPR; Biacore 3000; hGIIA N1A immobilised at 800 RU on a CM5 chip (EDC/NHS), BSA as reference channel; C1-INH injected at 10, 20, 30, 40, 50 µM in HBS (10 mM Hepes, pH 7.4, 150 mM NaCl, 3 mM EDTA), 30 µL/min; 1:1 Langmuir model
Settings: both partners purified

Kd: 6.7 µM
koff: 0.0125 s⁻¹
B1: Recombinant human group IIA secreted phospholipase A2, N1A catalytically active mutant (enzyme, UniProt P14555 21-144, looked up)
chain: ALVNFHRMIKLTTGKEAALSYGFYGCHCGVGGRGSPKDATDRCCVTHDCCYKRLEKRGCGTKFLSYKFSNSGSRITCAKQDSCRSQLCECDKAAATCFARNKTTYNKKYQYYSNKHCRGSTPRC
notes: human group IIA secreted phospholipase A2 (hGIIA), UniProt P14555; N1A mutation facilitates the removal of the initiator methionine; PDB 1DCY chain A covers aa 1-124; also called hGIIA; hGIIA N1A
